Test in all cases: EMSA
The target in data set [1] is T1, Spalt major (Salm) (UniProt P39770 1-1365).
T1 sequence: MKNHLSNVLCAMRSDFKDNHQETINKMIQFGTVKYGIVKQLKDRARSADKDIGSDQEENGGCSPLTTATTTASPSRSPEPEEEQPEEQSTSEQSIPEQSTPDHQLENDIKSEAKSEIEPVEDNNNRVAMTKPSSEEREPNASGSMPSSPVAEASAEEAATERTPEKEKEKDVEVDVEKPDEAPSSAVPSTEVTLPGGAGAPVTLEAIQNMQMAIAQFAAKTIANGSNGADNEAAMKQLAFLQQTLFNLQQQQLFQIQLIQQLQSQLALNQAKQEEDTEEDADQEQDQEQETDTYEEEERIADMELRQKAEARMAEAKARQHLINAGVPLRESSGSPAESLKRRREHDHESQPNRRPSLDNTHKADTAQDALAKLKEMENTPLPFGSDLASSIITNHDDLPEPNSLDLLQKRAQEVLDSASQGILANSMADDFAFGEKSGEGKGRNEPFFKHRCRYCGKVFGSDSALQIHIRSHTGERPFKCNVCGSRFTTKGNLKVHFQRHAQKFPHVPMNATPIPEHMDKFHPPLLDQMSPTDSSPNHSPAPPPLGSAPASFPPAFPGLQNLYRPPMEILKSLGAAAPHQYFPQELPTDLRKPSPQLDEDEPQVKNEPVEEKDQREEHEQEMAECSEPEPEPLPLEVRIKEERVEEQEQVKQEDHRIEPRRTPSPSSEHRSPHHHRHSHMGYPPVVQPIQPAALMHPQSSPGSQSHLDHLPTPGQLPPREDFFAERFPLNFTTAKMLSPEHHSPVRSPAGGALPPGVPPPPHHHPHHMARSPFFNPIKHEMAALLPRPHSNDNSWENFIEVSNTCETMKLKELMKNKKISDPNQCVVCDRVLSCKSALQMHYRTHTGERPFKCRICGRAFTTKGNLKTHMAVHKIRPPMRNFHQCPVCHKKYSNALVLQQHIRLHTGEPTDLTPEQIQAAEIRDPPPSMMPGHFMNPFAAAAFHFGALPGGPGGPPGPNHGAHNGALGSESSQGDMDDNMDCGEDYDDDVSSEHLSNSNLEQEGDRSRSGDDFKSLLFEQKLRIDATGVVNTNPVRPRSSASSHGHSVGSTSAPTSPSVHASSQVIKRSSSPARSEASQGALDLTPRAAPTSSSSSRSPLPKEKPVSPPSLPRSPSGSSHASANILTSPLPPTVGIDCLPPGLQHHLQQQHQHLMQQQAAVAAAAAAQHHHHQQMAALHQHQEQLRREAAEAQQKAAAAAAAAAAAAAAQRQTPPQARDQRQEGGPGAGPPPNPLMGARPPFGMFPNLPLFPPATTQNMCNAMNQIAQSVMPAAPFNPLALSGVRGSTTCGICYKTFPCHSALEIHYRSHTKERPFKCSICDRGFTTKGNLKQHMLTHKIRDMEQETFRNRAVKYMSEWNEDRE

For data set [2], the target named is T1, Spalt major (Salm). The source holds these as a separate data set.
The target in data set [3] is T1, Spalt major (Salm). This is another data set of the same source.

Read-outs that look alike come from different tables or passages of the source.

B1: 60sal (dsDNA)
DNA 1: GCAAAAAGATATCAAAAATGTCGCATATTAATAACGCTCTCCATTGGCGGACACAGGAC
DNA 2: GTCCTGTGTCCGCCAATGGAGAGCGTTATTAATATGCGACATTTTTGATATCTTTTTGC
Consider B1, for which the binding result with Spalt major (Salm) [1] was “binds”.

B2: 60salC (5' half, conserved) (dsDNA)
DNA 1: GCAAAAAGATATCAAAAATGTCGCATATT
DNA 2: AATATGCGACATTTTTGATATCTTTTTGC
For B2, the binding result with Spalt major (Salm) [2] was “binds”.

B3: 60salNC (3' half, non-conserved) (dsDNA)
DNA 1: TTAATAACGCTCTCCATTGGCGGACACAGGAC
DNA 2: GTCCTGTGTCCGCCAATGGAGAGCGTTATTAA
In the case of B3, the binding result with Spalt major (Salm) [3] is “binds”.

The values above are taken from doi:10.1101/2023.09.04.556233.
